From the DeepSol protein solubility set

Assay: soluble on expression in E. coli; label from the status in PepcDB or PDB records

Sequence | soluble on expression in E. coli
MGSDKIHHHHHHMQIESFKSLLPKYKCIFFDAFGVLKTYNGLLPGIENTFDYLKAQGQDYYIVTNDASRSPEQLADSYHKLGLFSITADKIISSGMITKEYIDLKVDGGIVAYLGTANSANYLVSDGIKMLPVSAIDDSNIGEVNALVLLDDEGFNWFHDLNKTVNLLRKRTIPAIVANTDNTYPLTKTDVAIAIGGVATMIESILGRRFIRFGKPDSQMFMFAYDMLRQKMEISKREILMVGDTLHTDILGGNKFGLDTALVLTGNTRIDDAETKIKSTGIVPTHICESAVIEL | not soluble
MLMGMKPLRLCAILASIPPLAMVVRGRIRPKNSRKRFPTIVVLGTAQYDGVPSRQFAARLKWAAEQWHTQRSQKVVTVGGKLPEDRFTEAAVAREYLIKEHVDSDLIVAVEQGHDTRGSLRAALSELEQPILIITDPNHSLRAELIARSEGIAAWASSTPYCPTTFPRWQWWWTFVHEQGGLCVVLIELVAGKDVAQKVEDALRRLQAWLRPSRRARHEQLREERLEHHHHHH | not soluble
MVEPGRIGGNQTRLAAVLLDVSTPNTLNADFDLMRSVAGITDARNEEIRAMLQAFIGRMSGVPPSVWGGLAAARFQDVVDRWNAESTRLYHVLHAIADTIRHNEAALREAGQIHARHIAAAGGDL | soluble
MGEAETPSFEMTWSSTTSSGYCSQEDSDSELEQYFTARTSLVRRPRRDQDEAVERETPDLSQAETEQKIKDYNGQINSNLFMSLNKDGSYTGFIKVQLKLVRPVSVPSSKKPPSLQDARRGTGRSTAVKRRTSFYLPKDAIKHLHVLSRTRAREVIEALLRKFMVVDDPRKFALFERTERHGQVYLRKLSDDEQPLKLRLLAGPSEKALSFVLKENDSGEVNWDAFSMPELHNFLRILQREEEEHLRQILQKYSRCRQKIQEALHACPLG | soluble
MSLSQGALYLVPTPIGNLEDMTFRAIRMLKEADIIAAEDTRNTVKLLNHFEITTRMTSYHQFTKENKEDNIIQRMLDGEVVALVSDAGMPSISDPGYELVQSALNANIPVIPLPGANAALTALIASGLAPQPFYFYGFLPRQNKERTQAIEKLAAREETWILYESPHRLKETLKAIIKITGNDRKIVLCRELTKRFEEFLRGTVEDALNWAMDEEVRGEFCLIIEGNANPPLAEEQLWWQELDIKTHVSTVMEQENVSSKDAIKTVMKARNLPKREVYSAYHEIKEGHHHHHH | soluble
MNNASGGTHSKGTATTGGTTTQAAKTNLTTTAAKGRTATPSLDEETRKRLMVEGKCFHCFKPGHISPNYLEKQIKQLKVLEQPVPEEQGVSENN | not soluble
IEDEVIYSKKRYKLKREIDKLFLDEEYFQIEPQLFEEYDEFTTINNKIPEESMVKVVNGKVMVLRADITTSIIKSLVPRWEDGLKLKLFYNSSIYKNKNTVGIKEIRQIGCEYLGEASVEADREVVKLALKILEKYNNNFILEVGSSKYIHGLLEELNLNKNCENQIKNLLYTKNTHELKVYIEELKIKHEVKELLSNILSLQGNLYNVIEKSNKFYCNNKMKQALEELKQVNNLIEECNFLDKARFDLSMITMLDYYEGIMFRGYYPNSYKEILSGGRYDSLTKEYGKEIPAIGFTLSVDELMKYVYK | not soluble
MSMLKIGDIVTRKSHGQDIYFIVTDIQNKDSSKPVYILRGLFYRIIVDAFEDDLVKKDSRSTRINLRRDLTMARSNAYRQIFTSRCFLFSKPRQRPGKVLHIDSSESFLKMCRNLYKEAGITSREYLAPESEQPNIIKRALAETKPDILVVTGHDSLKKGSDPNLLDSYRNSKYFIECVKEARKYQPDYDKLCIFAGACQSYFEAIMQAGANFASSPGRININALDPAIVSEKVALTNKDNYVTPEEVSKLTISGSKGIGGIKTRGHLTVL | soluble
MSLYKIDFSKGLVPAILQDNQTKQVLMLGYMNQEAFDKTIEDGVVCFYSRSKQRLWTKGETSGHTQLVKDIHVDCDNDTILIDVIPNGPTCHTGSQSCFNTEVPFSVQTLAQTVQDSAQSNNEKSYTKYLLTEGIEKITKKYGEEAFEVVIEAIKGDKKAFVSEVADELYHLFVLMHALGVDFSEIEAELARRHHKRNNFKGERQNIEQWEGHHHHHH | soluble
MSAAHKNLLAVWAKEPKDLVAVEKALNELTKVLSASSDLNDKQSALASKDLYEISVLLAILKHDFETFDDYINQMHTYYTMAPENSENKHLMTGLHLMFLLAANRLSDFHMLLEQIPQKEQTSNAYISTPVRIEQSLMEGAYNKVVLTEKNIPSPFYTIFIRIMLDTIRREIATSIEKSFKVLTAKDATVMLLFDNDEQMKKFGQERKWHLDGERYVFEIEVAQEKPVNLDTVRVATQTLFYAKQLEQIV | not soluble
MADDGLGDVPMETESMPQYTISHVIEAHKSDTKALAVTQGGCLISGGRDETVKFWAKKGKQYTKTHAFEQPKGITVNSIAYAELADGWRLFVGRRDGTIAVFGPSQAEPYAIFNEHKQNVCCLHINEKATHMLSGSWDSNVIIWPITELNSSSFTTIVCPGHTLSVWALASFPDLPNTYLSASADKTIRMWFGDTTLSVFKGHTDVVRALVVLSSSHFLSAGNDGHIIHWDVASASILRKFATQAHEFIYSMTLSDSHILTTGEDGTLEFWAIDGGKDGNLAIVSEAVIQLPTTNTWDAKVLLNSDIAVAGSDGRIYIMTTDKNRKADDDILDAFDAEVVAKLTAKTERMKQEEHETVTIKVDIDDRPTQLNLKYKKGTDPGLCAQEFLSENNLPIHYLEEITRFIKDRIPEARAFDLKSGKKVIVDGKEYDYALGVNFGKGEPDKQMPFNVNESPQFAAQRFVERHQLPVSVIPSLAGMISQEMDKLSKGAASAQSGYEDPFTGPGRYVPQGSSNSGGHGADPFTGSGRYVPQASNSSGFDTGFSGDPLTGDGGYRASAPENTGSHAVPLSSLPQNKKKPRGPLVPVPDFYIIGLAGKGEKAIAKLKELNEKQDAFQLNPDQINGLEELFVLPTSSNYSSEVTQSAFEMSLQWPVEHLTPVLDFLRIALTHHSLNSYFCDRERGQELVGRLIAILVSDPADVALKVLVCRCIANAFSHPVGRNLFASTELSTLAPLVVRQVLNEKTVLQMSAATALANWSLALLQQSEQCEQLGPKEDLLRAILNGIESVDSFGYLGEDAIIRLLQALVTVMWGDASVIRLAKNRNIAQIAARLKDAVSNDSGKNIARDIVEMTYAV | not soluble
MKHLLPFATVILALGIVGCQKVETTAPEKIKQDTQTKQQVSVTPERPSDAELNAVKVYHHMKYMEATAKLAGGTNKLLHTKKLPTEGSDAVVTPALDHLYSKGVIDLSNGPVTIEYPEVDEGRYYSIHVTDQEHYTIFDKIHPVGKFTFVRKGKNMEVPEGATVIESPGDYPHLFIRVQVKTPEDLVNALSIQEKITLTANSSKTLIVDNPIKHTLATHDVYSQNKELMVSSVNFTHQDYLRVSEYLGVVAPNMGPTGNIGLFGPIDSNEPNSDDYLFRAVGIIGHLGLPLEHAYYGPYFTNCENQLLMGDKTEVFTLPYEPEGVELFWSVTRYSALTRNTLPGKNDLINAYNTKPDANGNISITFSADSPNDGTYWMPVNSGEPYYFVVRYYKPDVNNLPEKPCSLEHHHHHH | not soluble
PSSNGPLEGTRGKLKNKPRDRGTSPPQRAVEEFDDGEKVHLKIDPSVPNGRFHPRFDGQTGTVEGKQGDAYKVDIVDGGKEKTIIVTAAHLRRQE | soluble
MGSDKIHHHHHHELVIDITRGVREPMPIAIPVFGGTDAQSSAMGRDVVGVVSNDLQGSGLFRVLDPAAYIQSLPNLAVQPQFADWRAINAQALVQGEVQPQGDGRLRVAFRLWDVFSGQQVVGRAFLTQGDNWRRVSHIIADEIYKAITGEEGYFDTRVVYVAETGPKTNRVKKLAIMDQDGANQRNLTNGESMVLTPRFSPTAQEITYLSYYNSVPRVYLFNIETGRRELLGDFPGMTFAPRFSPDGNKVIMSMALDGNTEIYEMDLRTRRSSRLTNHPSIDTSPSYAPDGRQITFNSDRGGAQQIYVMNADGSGVQRISFGDGRYATPVWSPRGDLIAFTKLKGGRFFIGAMRPDGSGEKILTEGFLVEGPTWAPNGRVLMFFRQDPNGRTTLHSIDVTGYNERQISTPTEASDPAWSPLLP | not soluble
MNLAKRILQGEQLTKETVLKIYEDTNIDTLDLLNEAYILRKHYFGKKVKLNMILNAKSGICPENCGYCGQSRDIKQKQRYALIPEEQIIDGAKVAHDNHIGTYCIVMSGRGPSDKEVDHISNTVRTIKSQHPQLKICACLGLTNDEQAKKLKSAGVDRYNHNINTSENYHDNVVTTHSYKDRTDTIELMKANNISPCSGVICGMGESNQDIVDMAFALKEMDADSIPINFLHPIKGTKFGSMDDLTPMKCLRIVALFRLINPTKEIRIAGGREVNLRSLQPLALKAANSIFVGDYLITGGQPNQLDYDMINDLGFEIDYDTCENKENKNDVSRAN | not soluble
MKAYVALLHSIVLGDGRRVVMADLKAMAEALGCRAPRTLVATGNLLFEAPEKPLAELEAELEKAFEKTFGRHVDIIVRSAEDWSRLAAGNPFLAESERDPASVHVRVMRLPLEVDMREKLLGYCSRGERVAIVDGDLWVDFAGKASESKLLGALTTKRLGIGTVRNWNTVKGLRGMVAG | not soluble
MGSDKIHHHHHHMSEDIFDAIIVGAGLAGSVAALVLAREGAQVLVIERGNSAGAKNVTGGRLYAHSLEHIIPGFADSAPVERLITHEKLAFMTEKSAMTMDYCNGDETSPSQRSYSVLRSKFDAWLMEQAEEAGAQLITGIRVDNLVQRDGKVVGVEADGDVIEAKTVILADGVNSILAEKLGMAKRVKPTDVAVGVKELIELPKSVIEDRFQLQGNQGAACLFAGSPTDGLMGGGFLYTNENTLSLGLVCGLHHLHDAKKSVPQMLEDFKQHPAVAPLIAGGKLVEYSAHVVPEAGINMLPELVGDGVLIAGDAAGMCMNLGFTIRGMDLAIAAGEAAAKTVLSAMKSDDFSKQKLAEYRQHLESGPLRDMRMYQKLPAFLDNPRMFSGYPELAVGVARDLFTIDGSAPELMRKKILRHGKKVGFINLIKDGMKGVTVL | not soluble
MTIDNYDNSKQDSSKYEVSGTGDGRNGDGGLPLVQCVARARIPTTQGPDIFLHLYSNNRDNKEHLAIVFGEDIRSRSLFRRRQCETQQDRMIRGAYIGKLYPGRTVADEDDRLGLALEFDDSTGELLASKATTWDAHNDTLVRIHSECYTGENAWSARCDCGEQFDRAGRLIACDHEPTSNIKGGNGHGVIVYLRQEGRGIGLGEKLKAYNLQDLGADTVQANLMLKHPVDARDFSLGKAILLDLGIGNVRLLTNNPEKIKQVDHAPYLKCVERVPMVPIHWTNSSEGIDSKEIEGYLRTKIERMGHLLTEPLKLHTNPQPTETSEAQNQNRMNSALSSTSTLAI | soluble
MMELETGQCTIMELKKENVKELAQVFKTVAFKDTGTWHASEAGMKITVDDGSYQLASVFINPAFFSSFKVREEIVSMKISIKSISEFLSISENSSSSVKVSYPGMFQPVKMLVEDADGWVARGNFTTTLADQELDFEFDDAGVLATYLLKTQVLKEIIKDFDDTSRTVRIQFTKNSLCFTTFGDVGETTVSIPSRSLQMESVKCLEEVEFSYLLSLIQRMTTAFILATKLILRVDERGVLSCQFSIDHGEGNASYIEFLTVPADEEE | not soluble
MTPTHPTVTELLLPLSEIDDRGVYFEDSFTSWRDHIRHGAAIAAALRERLDPARPPHVGVLLQNTPFFSATLVAGALSGIVPVGLNPVRRGAALAGDIAKADCQLVLTGSGSAEVPADVEHINVDSPEWTDEVAAHRDTEVRFRSADLADLFMLIFTSGTSGDPKAVKCSHRKVAIAGVTITQRFSLGRDDVCYVSMPLFHSNAVLVGWAVAAACQGSMALRRKFSASQFLADVRRYGATYANYVGKPLSYVLATPELPDDADNPLRAVYGNEGVPGDIDRFGRRFGCVVMDGFGSTEGGVAITRTLDTPAGALGPLPGGIQIVDPDTGEPCPTGVVGELVNTAGPGGFEGYYNDEAAEAERMAGGVYHSGDLAYRDDAGYAYFAGRLGDWMRVDGENLGTAPIERVLMRYPDATEVAVYPVPDPVVGDQVMAALVLAPGTKFDADKFRAFLTEQPDLGHKQWPSYVRVSAGLPRTMTFKVIKRQLSAEGVACADPVWPIRR | soluble
